T1: recombinant wild-type pro-ghrelin-His8 (mouse, UniProt Q9EQX0 24-117)
T1 sequence: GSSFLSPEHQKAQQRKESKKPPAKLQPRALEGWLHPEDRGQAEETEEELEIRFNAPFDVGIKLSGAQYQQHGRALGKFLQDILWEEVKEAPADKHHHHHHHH

T2: recombinant wild-type pro-ghrelin-His8, Q9EQX0
T2 chain: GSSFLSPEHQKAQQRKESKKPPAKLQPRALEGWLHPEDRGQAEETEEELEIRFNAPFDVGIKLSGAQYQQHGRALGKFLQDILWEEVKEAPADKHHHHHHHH


Assays:
[1] = molecular target: T1, recombinant wild-type pro-ghrelin-His8; test: cell-based or functional assay
[2] = molecular target: T2, recombinant wild-type pro-ghrelin-His8, …

| Molecule | acylating activity of GOAT in Sf9 membranes against that in INS-1 cell membranes [1] [fold] | 3H-radioactivity covalently linked to pro-ghrelin, in vitro assay with [3H]octanoyl CoA and INS-1 cell membranes, against mock-transfected membranes [1] [fold] | amount of [3H]octanoyl pro-ghrelin formed, in vitro assay with Sf9 membranes, against S3A mutant pro-ghrelin as substrate [2] |
| --- | --- | --- | --- |
| GOAT expressed in Sf9 insect cells from pFastBac HT-A (His10-tag) (from UniProt P0C7A3 1-435) (enzyme) | 5 |  |  |
| mouse ghrelin O-acyltransferase (GOAT) (enzyme) MDWLQLFFLHPLSFYQGAAFPFALLFNYLCILDTFSTRARYLFLLAGGGVLAFAAMGPYSLLIFIPALCAVALVSFLSPQEVHRLTFFFQMGWQTLCHLGLHYTEYYLGEPPPVRFYITLSSLMLLTQRVTSLSLDICEGKVEAPRRGIRSKSSFSEHLWDALPHFSYLLFFPALLGGSLCSFRRFQACVQRSSSLYPSISFRALTWRGLQILGLECLKVALRSAVSAGAGLDDCQRLECIYLMWSTAWLFKLTYYSHWILDDSLLHAAGFGAEAGQGPGEEGYVPDVDIWTLETTHRISLFARQWNRSTALWLRRLVFRKSRRWPLLQTFAFSAWWHGLHPGQVFGFLCWSVMVKADYLIHTFANVCIRSWPLRLLYRALTWAHTQLIIAYIMLAVEGRSLSSLCQLCCSYNSLFPVMYGLLLFLLAERKDKRN |  | 5 | more than 5-fold higher than when the S3A mutant pro-ghrelin was used as the substrate |

— patent US20090170141A1 (University of Texas, published 2009)
